Patent publication US20220073630A1 (Hoffmann-La Roche, published 2022)
Where a chain is given by its changes, count along the chain named.

B1: m38-pMHC-I-anti-FAP-IgG (other)
heavy 1: SSPPMFRVGCGGSGGGGSGGGGSIQKTPQIQVYSRHPPENGKPNILNCYVTQFHPPHIEIQMLKNGKKIPKVEMSDMSFSKDWSFYILAHTEFTPTETDTYACRVKHASMAEPKTVYWDRDMGGGGSGGGGSGGGGSGGGGSGPHSLRYFVTAVSRPGLGEPRYMEVGYVDDTEFVRFDSDAENPRYEPRARWMEQEGPEYWERETQKAKGNEQSFRVDLRTLLGCYNQSKGGSHTIQVISGCEVGSDGRLLRGYQQYAYDGCDYIALNEDLKTWTAADMAALITKHKWEQAGEAERLRAYLEGTCVEWLRRYLKNGNATLLRTDSPKAHVTHHSRPEDKVTLRCWALGFYPADITLTWQLNGEELIQDMELVETRPAGDGTFQKWASVVVPLGKEQYYTCHVYHQGLPEPLTLRWGSEVQLLESGGGLVQPGGSLRLSCAASGFTFSSHAMSWVRQAPGKGLEWVSAIWASGEQYYADSVKGRFTISRDNSKNTLYLQMNSLRAEDTAVYYCAKGWLGNFDYWGQGTLVTVSSAKTTAPSVYPLAPVCGGTTGSSVTLGCLVKGYFPEPVTLTWNSGSLSSGVHTFPALLQSGLYTLSSSVTVTSNTWPSQTITCNVAHPASSTKVDKKIEPRVPITQNPCPPLKECPPCAAPDAAGGPSVFIFPPKIKDVLMISLSPMVTCVVVDVSEDAPDVQISWFVNNVEVHTAQTQTHREDYNSTLRVVSALPIQHQDWMSGKEFKCKVNNRALGSPIEKTISKPRGPVRAPQVCVLPPPAEEMTKKEFSLSCAITGFLPAEIAVDWTSNGRTEQNYKNTATVLDSDGSYFMVSKLRVQKSTWERGSLFACSVVHEGLHNHLTTKTISRSLGK
heavy 2: EVQLLESGGGLVQPGGSLRLSCAASGFTFSSHAMSWVRQAPGKGLEWVSAIWASGEQYYADSVKGRFTISRDNSKNTLYLQMNSLRAEDTAVYYCAKGWLGNFDYWGQGTLVTVSSAKTTAPSVYPLAPVCGGTTGSSVTLGCLVKGYFPEPVTLTWNSGSLSSGVHTFPALLQSGLYTLSSSVTVTSNTWPSQTITCNVAHPASSTKVDKKIEPRVPITQNPCPPLKECPPCAAPDAAGGPSVFIFPPKIKDVLMISLSPMVTCVVVDVSEDAPDVQISWFVNNVEVHTAQTQTHREDYNSTLRVVSALPIQHQDWMSGKEFKCKVNNRALGSPIEKTISKPRGPVRAPQVYVLPPCAEEMTKKEFSLWCMITGFLPAEIAVDWTSNGRTEQNYKNTATVLDSDGSYFMYSKLRVQKSTWERGSLFACSVVHEGLHNRFTTKTISRSLGK
light: EIVLTQSPGTLSLSPGERATLSCRASQSVSRSYLAWYQQKPGQAPRLLIIGASTRATGIPDRFSGSGSGTDFTLTISRLEPEDFAVYYCQQGQVIPPTFGQGTKVEIKRADAAPTVSIFPPSSEQLTSGGASVVCFLNNFYPKDINVKWKIDGSERQNGVLNSWTDQDSKDSTYSMSSTLTLTKDEYERHNSYTCEATHKTSTSPIVKSFNRNEC
notes: also called mCMV m38-pMHC-I-anti-FAP-IgG; pMHC-I-IgG
B2: IE3-pMHC-I-anti-FAP-IgG (other)
heavy 1: B1 heavy 1 with S1R, S2A, P3L, P4E, M5Y, F6K, R7N, V8L
heavy 2: B1 heavy 2
light: B1 light
notes: Same build as m38-pMHC-I-anti-FAP-IgG, with the control peptide IE3; also called mCMV IE3-pMHC-I-anti-FAP-IgG; control fusion protein

Target: T1, murine fibroblast activation protein (FAP) (murine, UniProt P97321 1-761)
T1 construct: whole, on cells; also called mFAP; murine FAP
T1 sequence: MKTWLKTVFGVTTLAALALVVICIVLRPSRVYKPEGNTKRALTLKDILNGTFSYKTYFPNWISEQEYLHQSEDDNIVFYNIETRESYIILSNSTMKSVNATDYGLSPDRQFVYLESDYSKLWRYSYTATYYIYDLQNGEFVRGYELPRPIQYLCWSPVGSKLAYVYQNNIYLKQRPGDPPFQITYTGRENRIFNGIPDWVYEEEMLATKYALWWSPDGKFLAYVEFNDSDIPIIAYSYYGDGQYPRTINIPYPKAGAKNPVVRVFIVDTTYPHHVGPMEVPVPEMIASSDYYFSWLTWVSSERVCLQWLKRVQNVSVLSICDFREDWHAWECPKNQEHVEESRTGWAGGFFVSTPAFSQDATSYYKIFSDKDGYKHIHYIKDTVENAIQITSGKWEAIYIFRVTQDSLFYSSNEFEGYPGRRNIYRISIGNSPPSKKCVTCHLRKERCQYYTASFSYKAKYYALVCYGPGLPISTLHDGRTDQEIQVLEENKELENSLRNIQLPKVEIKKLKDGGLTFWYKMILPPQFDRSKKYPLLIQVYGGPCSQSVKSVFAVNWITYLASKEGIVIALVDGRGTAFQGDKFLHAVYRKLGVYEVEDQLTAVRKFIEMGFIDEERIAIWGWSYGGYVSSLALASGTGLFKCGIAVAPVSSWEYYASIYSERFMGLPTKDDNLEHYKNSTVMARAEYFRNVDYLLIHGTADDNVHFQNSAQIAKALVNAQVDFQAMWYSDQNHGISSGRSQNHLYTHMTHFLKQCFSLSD
Test: flow cytometry on target cells (data not shown)

Binder	binding result
B1	binds
B2	binds
